# In publication PMC7367873, “Dissecting the sequence determinants for dephosphorylation by the catalytic subunits of phosphatases PP1 and PP2A” (Nature Communications, 2020):
# B1: ARHGEF7 (protein, UniProt Q14155 1-803, looked up)
# Rho guanine nucleotide …: MNSAEQTVTWLITLGVLESPKKTISDPEGFLQASLKDGVVLCRLLERLLPGTIEKVYPEPRSESECLSNIREFLRGCGASLRLELLFPPSQPPQHLVTTILLSASTFDANDLYQGQNFNKVLSSLVTLNKVTADIGLGSDSVCARPSSHRIKSFDSLGSQSLHTRTSKLFQGQYRSLDMTDNSNNQLVVRAKFNFQQTNEDELSFSKGDVIHVTRVEEGGWWEGTLNGRTGWFPSNYVREVKASEKPVSPKSGTLKSPPKGFDTTAINKSYYNVVLQNILETENEYSKELQTVLSTYLRPLQTSEKLSSANISYLMGNLEEICSFQQMLVQSLEECTKLPEAQQRVGGCFLNLMPQMKTLYLTYCANHPSAVNVLTEHSEELGEFMETKGASSPGILVLTTGLSKPFMRLDKYPTLLKELERHMEDYHTDRQDIQKSMAAFKNLSAQCQEVRKRKELELQILTEAIRNWEGDDIKTLGNVTYMSQVLIQCAGSEEKNERYLLLFPNVLLMLSASPRMSGFIYQGKLPTTGMTITKLEDSENHRNAFEISGSMIERILVSCNNQQDLQEWVEHLQKQTKVTSVGNPTIKPHSVPSHTLPSHPVTPSSKHADSKPAPLTPAYHTLPHPSHHGTPHTTINWGPLEPPKTPKPWSLSCLRPAPPLRPSAALCYKEDLSKSPKTMKKLLPKRKPERKPSDEEFASRKSTAALEEDAQILKVIEAYCTSAKTRQTLNSTWQGTDLMHNHVLADDDQPSLDSLGRRSSLSRLEPSDLSEDSDYDSIWTAHSYRMGSTSRKSCCSYISHQN
# B2: SHCBP1 (protein, UniProt Q8NEM2 2-672, looked up)
# SHC SH2 domain-binding …: ADGSLTGGGLEAAAMAPERMGWAVEQELASLEKGLFQDEDSCSDCSYRDKPGSSLQSFMPEGKTFFPEIFQTNQLLFYERFRAYQDYILADCKASEVQEFTAEFLEKVLEPSGWRAVWHTNVFKVLVEITDVDFAALKAVVRLAEPYLCDSQVSTFTMECMKELLDLKEHRLPLQELWVVFDDSGVFDQTALAIEHVRFFYQNIWRSWDEEEEDEYDYFVRCVEPRLRLHYDILEDRVPSGLIVDYHNLLSQCEESYRKFLNLRSSLSNCNSDSEQENISMVEGLKLYSEMEQLKQKLKLIENPLLRYVFGYQKNSNIQAKGVRSSGQKITHVVSSTMMAGLLRSLLTDRLCQEPGEEEREIQFHSDPLSAINACFEGDTVIVCPGHYVVHGTFSIADSIELEGYGLPDDIVIEKRGKGDTFVDCTGADIKISGIKFVQHDAVEGILIVHRGKTTLENCVLQCETTGVTVRTSAEFLMKNSDLYGAKGAGIEIYPGSQCTLSDNGIHHCKEGILIKDFLDEHYDIPKISMVNNIIHNNEGYGVVLVKPTIFSDLQENAEDGTEENKALKIQTSGEPDVAERVDLEELIECATGKMELCARTDPSEQVEGNCEIVNELIAASTQKGQIKKKRLSELGITQADDNLMSQEMFVGIVGNQFKWNGKGSFGTFLF
# B3: SRSF10 (protein, UniProt O75494 1-262, looked up)
# Serine/arginine-rich splicing …: MSRYLRPPNTSLFVRNVADDTRSEDLRREFGRYGPIVDVYVPLDFYTRRPRGFAYVQFEDVRDAEDALHNLDRKWICGRQIEIQFAQGDRKTPNQMKAKEGRNVYSSSRYDDYDRYRRSRSRSYERRRSRSRSFDYNYRRSYSPRNSRPTGRPRRSRSHSDNDRFKHRNRSFSRSKSNSRSRSKSQPKKEMKAKSRSRSASHTKTRGTSKTDSKTHYKSGSRYEKESRKKEPPRSKSQSRSQSRSRSKSRSRSWTSPKSSGH
# B4: TSC1 (protein, UniProt Q92574 1-1164, looked up)
# Hamartin: MAQQANVGELLAMLDSPMLGVRDDVTAVFKENLNSDRGPMLVNTLVDYYLETSSQPALHILTTLQEPHDKHLLDRINEYVGKAATRLSILSLLGHVIRLQPSWKHKLSQAPLLPSLLKCLKMDTDVVVLTTGVLVLITMLPMIPQSGKQHLLDFFDIFGRLSSWCLKKPGHVAEVYLVHLHASVYALFHRLYGMYPCNFVSFLRSHYSMKENLETFEEVVKPMMEHVRIHPELVTGSKDHELDPRRWKRLETHDVVIECAKISLDPTEASYEDGYSVSHQISARFPHRSADVTTSPYADTQNSYGCATSTPYSTSRLMLLNMPGQLPQTLSSPSTRLITEPPQATLWSPSMVCGMTTPPTSPGNVPPDLSHPYSKVFGTTAGGKGTPLGTPATSPPPAPLCHSDDYVHISLPQATVTPPRKEERMDSARPCLHRQHHLLNDRGSEEPPGSKGSVTLSDLPGFLGDLASEEDSIEKDKEEAAISRELSEITTAEAEPVVPRGGFDSPFYRDSLPGSQRKTHSAASSSQGASVNPEPLHSSLDKLGPDTPKQAFTPIDLPCGSADESPAGDRECQTSLETSIFTPSPCKIPPPTRVGFGSGQPPPYDHLFEVALPKTAHHFVIRKTEELLKKAKGNTEEDGVPSTSPMEVLDRLIQQGADAHSKELNKLPLPSKSVDWTHFGGSPPSDEIRTLRDQLLLLHNQLLYERFKRQQHALRNRRLLRKVIKAAALEEHNAAMKDQLKLQEKDIQMWKVSLQKEQARYNQLQEQRDTMVTKLHSQIRQLQHDREEFYNQSQELQTKLEDCRNMIAELRIELKKANNKVCHTELLLSQVSQKLSNSESVQQQMEFLNRQLLVLGEVNELYLEQLQNKHSDTTKEVEMMKAAYRKELEKNRSHVLQQTQRLDTSQKRILELESHLAKKDHLLLEQKKYLEDVKLQARGQLQAAESRYEAQKRITQVFELEILDLYGRLEKDGLLKKLEEEKAEAAEAAEERLDCCNDGCSDSMVGHNEEASGHNGETKTPRPSSARGSSGSRGGGGSSSSSSELSTPEKPPHQRAGPFSSRWETTMGEASASIPTTVGSLPSSKSFLGMKARELFRNKSESQCDEDGMTSSLSESLKTELGKDLGVEAKIPLNLDGPHPSPPTPDSVGQLHIMDYNETHHEHS
# B5: FAM53B (protein, UniProt Q14153 1-422, looked up)
# Protein FAM53B: MVMVLSESLSTRGADSIACGTFSRELHTPKKMSQGPTLFSCGIMENDRWRDLDRKCPLQIDQPSTSIWECLPEKDSSLWHREAVTACAVTSLIKDLSISDHNGNPSAPPSKRQCRSLSFSDEMSSCRTSWRPLGSKVWTPVEKRRCYSGGSVQRYSNGFSTMQRSSSFSLPSRANVLSSPCDQAGLHHRFGGQPCQGVPGSAPCGQAGDTWSPDLHPVGGGRLDLQRSLSCSHEQFSFVEYCPPSANSTPASTPELARRSSGLSRSRSQPCVLNDKKVGVKRRRPEEVQEQRPSLDLAKMAQNCQTFSSLSCLSAGTEDCGPQSPFARHVSNTRAWTALLSASGPGGRTPAGTPVPEPLPPSFDDHLACQEDLSCEESDSCALDEDCGRRAEPAAAWRDRGAPGNSLCSLDGELDIEQIEKN
# B6: SKIV2L2 (protein, UniProt P42285 2-1042, looked up)
# Exosome RNA helicase MTR4: ADAFGDELFSVFEGDSTTAAGTKKDKEKDKGKWKGPPGSADKAGKRFDGKLQSESTNNGKNKRDVDFEGTDEPIFGKKPRIEESITEDLSLADLMPRVKVQSVETVEGCTHEVALPAEEDYLPLKPRVGKAAKEYPFILDAFQREAIQCVDNNQSVLVSAHTSAGKTVCAEYAIALALREKQRVIFTSPIKALSNQKYREMYEEFQDVGLMTGDVTINPTASCLVMTTEILRSMLYRGSEVMREVAWVIFDEIHYMRDSERGVVWEETIILLPDNVHYVFLSATIPNARQFAEWICHLHKQPCHVIYTDYRPTPLQHYIFPAGGDGLHLVVDENGDFREDNFNTAMQVLRDAGDLAKGDQKGRKGGTKGPSNVFKIVKMIMERNFQPVIIFSFSKKDCEAYALQMTKLDFNTDEEKKMVEEVFSNAIDCLSDEDKKLPQVEHVLPLLKRGIGIHHGGLLPILKETIEILFSEGLIKALFATETFAMGINMPARTVLFTNARKFDGKDFRWISSGEYIQMSGRAGRRGMDDRGIVILMVDEKMSPTIGKQLLKGSADPLNSAFHLTYNMVLNLLRVEEINPEYMLEKSFYQFQHYRAIPGVVEKVKNSEEQYNKIVIPNEESVVIYYKIRQQLAKLGKEIEEYIHKPKYCLPFLQPGRLVKVKNEGDDFGWGVVVNFSKKSNVKPNSGELDPLYVVEVLLRCSKESLKNSATEAAKPAKPDEKGEMQVVPVLVHLLSAISSVRLYIPKDLRPVDNRQSVLKSIQEVQKRFPDGIPLLDPIDDMGIQDQGLKKVIQKVEAFEHRMYSHPLHNDPNLETVYTLCEKKAQIAIDIKSAKRELKKARTVLQMDELKCRKRVLRRLGFATSSDVIEMKGRVACEISSADELLLTEMMFNGLFNDLSAEQATALLSCFVFQENSSEMPKLTEQLAGPLRQMQECAKRIAKVSAEAKLEIDEETYLSSFKPHLMDVVYTWATGATFAHICKMTDVFEGSIIRCMRRLEELLRQMCQAAKAIGNTELENKFAEGITKIKRDIVFAASLYL
# B7: ZCCHC8 (protein, UniProt Q6NZY4 2-707, looked up)
# Zinc finger CCHC …: AAEVYFGDLELFEPFDHPEESIPKPVHTRFKDDDGDEEDENGVGDAELRERLRQCEETIEQLRAENQELKRKLNILTRPSGILVNDTKLDGPILQILFMNNAISKQYHQEIEEFVSNLVKRFEEQQKNDVEKTSFNLLPQPSSIVLEEDHKVEESCAIKNNKEAFSVVGSVLYFTNFCLDKLGQPLLNENPQLSEGWEIPKYHQVFSHIVSLEGQEIQVKAKRPKPHCFNCGSEEHQMKDCPMPRNAARISEKRKEYMDACGEANNQNFQQRYHAEEVEERFGRFKPGVISEELQDALGVTDKSLPPFIYRMRQLGYPPGWLKEAELENSGLALYDGKDGTDGETEVGEIQQNKSVTYDLSKLVNYPGFNISTPRGIPDEWRIFGSIPMQACQQKDVFANYLTSNFQAPGVKSGNKRSSSHSSPGSPKKQKNESNSAGSPADMELDSDMEVPHGSQSSESFQFQPPLPPDTPPLPRGTPPPVFTPPLPKGTPPLTPSDSPQTRTASGAVDEDALTLEELEEQQRRIWAALEQAESVNSDSDVPVDTPLTGNSVASSPCPNELDLPVPEGKTSEKQTLDEPEVPEIFTKKSEAGHASSPDSEVTSLCQKEKAELAPVNTEGALLDNGSVVPNCDISNGGSQKLFPADTSPSTATKIHSPIPDMSKFATGITPFEFENMAESTGMYLRIRSLLKNSPRNQQKNKKASE
# B8: PDLIM5 (protein, UniProt Q96HC4 2-596, looked up)
# PDZ and LIM domain protein 5: SNYSVSLVGPAPWGFRLQGGKDFNMPLTISSLKDGGKAAQANVRIGDVVLSIDGINAQGMTHLEAQNKIKGCTGSLNMTLQRASAAPKPEPVPVQKGEPKEVVKPVPITSPAVSKVTSTNNMAYNKAPRPFGSVSSPKVTSIPSPSSAFTPAHATTSSHASPSPVAAVTPPLFAASGLHANANLSADQSPSALSAGKTAVNVPRQPTVTSVCSETSQELAEGQRRGSQGDSKQQNGPPRKHIVERYTEFYHVPTHSDASKKRLIEDTEDWRPRTGTTQSRSFRILAQITGTEHLKESEADNTKKANNSQEPSPQLASSVASTRSMPESLDSPTSGRPGVTSLTAAAAFKPVGSTGVIKSPSWQRPNQGVPSTGRISNSATYSGSVAPANSALGQTQPSDQDTLVQRAEHIPAGKRTPMCAHCNQVIRGPFLVALGKSWHPEEFNCAHCKNTMAYIGFVEEKGALYCELCYEKFFAPECGRCQRKILGEVISALKQTWHVSCFVCVACGKPIRNNVFHLEDGEPYCETDYYALFGTICHGCEFPIEAGDMFLEALGYTWHDTCFVCSVCCESLEGQTFFSKKDKPLCKKHAHSVNF
# Test system: GFP-14-3-3β and its binding proteins
# Test: GFP-14-3-3β co-IP with LC-MS/MS label-free quantification, untreated versus PP1c-treated
# Set-up: species or system human
# Details: pairwise comparison PP1 vs untreated, student's t-test; 3 replicates each; LC-MS/MS label-free quantification
row,Molecule,"Difference (log2), PP1 vs untreated [log2]"
1,B1,-3.042
2,B2,-3.298
3,B3,-2.973
4,B4,-3.2926
5,B5,-3.06
6,B6,-3.184
7,B7,-3.239
8,B8,-3.258

# Test system: GFP-14-3-3β
# Test: GFP-14-3-3β co-IP with LC-MS/MS, untreated GFP-14-3-3β versus GFP control (14-3-3 interactome)
# Format: binding, human
# Details: pairwise comparison untreated GFP-14-3-3β vs GFP, student's t-test; 3 replicates each; LC-MS/MS label-free quantification
row,Molecule,"Difference (log2), untreated vs GFP [log2]"
1,B1,2.997
2,B2,4.099
3,B3,3.797
4,B4,2.521
5,B5,2.4159
6,B6,4.62
7,B7,4.409
8,B8,1.189
